We go through 3 molecules from PMC5577506, “Intrinsic disorder in the partitioning protein KorB persists after co-operative complex formation with operator DNA and KorA” (Biochemical Journal, 2017).

The target of one data set is KorA (Escherichia coli (expression host); …, UniProt P03052 1-101). Nature of the data set: CD; 1 equivalent KorA; change at 280 nm; Buffer, salt, pH and temperature not given in the material; NMR at 800 MHz; SANS in 0, 65 or 100% D2O. The conditions noted are these: protein: recombinant; tags: none; chain copies: 2; blunt (only one strand printed; complement implied).

In data set [1] the target is T1, KorB (Escherichia coli (expression host); …, UniProt P07674 1-358). Nature of the data set: CD; 1 equivalent KorB; change at 280 nm; Buffer, salt, pH and temperature not given in the material; NMR at 800 MHz; SANS in 0, 65 or 100% D2O. The conditions noted are these: protein: recombinant; tags: His-tag; chain copies: 2; blunt (only one strand printed; complement implied).

The target in the next data set is KorB;KorA (Escherichia coli (expression host); …, UniProt P07674;P03052 1-358;1-101, |). Nature of the data set: NMR (15N-1H TROSY), CD, SANS; ternary KorA/KorB/OAOB complex; Buffer, salt, pH and temperature not given in the material; NMR at 800 MHz; SANS in 0, 65 or 100% D2O. The conditions noted are these: protein: recombinant;recombinant; tags: His-tag;none; chain copies: 2;2; blunt (only one strand printed; complement implied).

Data set [2] addresses T2, KorB (ParB family protein from the IncP1 plasmid RK2) (plasmid RK2 (IncP1), UniProt P07674 1-358).
T2 construct: KorB of plasmid RK2 (IncP1), 358 amino acid residues per subunit, homodimer; also called WT KorB; ^1H-KorB; source: E. coli BL21(λDE3), His-tagged fusion, purified as described previously [21]; also partially deuterated (~70% D2O M9 medium) and ^15N-labelled
T2 sequence (looked up): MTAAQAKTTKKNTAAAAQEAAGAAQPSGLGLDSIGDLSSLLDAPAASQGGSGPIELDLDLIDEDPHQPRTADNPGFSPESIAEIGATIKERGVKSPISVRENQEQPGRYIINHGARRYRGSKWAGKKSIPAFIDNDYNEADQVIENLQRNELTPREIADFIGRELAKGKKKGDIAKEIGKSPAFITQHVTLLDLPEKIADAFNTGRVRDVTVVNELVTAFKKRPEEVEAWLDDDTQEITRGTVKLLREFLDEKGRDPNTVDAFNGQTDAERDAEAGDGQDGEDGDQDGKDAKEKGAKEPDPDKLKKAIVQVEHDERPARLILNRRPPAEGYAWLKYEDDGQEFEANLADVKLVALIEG
The experiment in a line: NMR titration; ^15N-^1H TROSY at 800 MHz of ^15N/^2D KorB (~0.1 mM dimer) titrated with unlabelled KorA (1 and 2 equivalents); 10 mM sodium phosphate pH 7.0, 100 mM NaCl, 0.1 mM EDTA, 30°C. The note with it: both partners purified.

Data set [3] has as its target T1, KorB. Nature of the data set: NMR (15N-1H TROSY titration), SAXS, SANS; KorB dimer:OB 1:1; DBD and N-terminal peaks lost, CTD unaffected; Buffer, salt, pH and temperature not given in the material; NMR at 800 MHz; SANS in 0, 65 or 100% D2O. The conditions noted are these: protein: recombinant; tags: His-tag; chain copies: 2; blunt (only one strand printed; complement implied).

The target of a further data set is (NΔ150)KorB (Escherichia coli (expression host); …, UniProt P07674 151-358, del1-150). The experiment in a line: SAXS, SANS; complex mass consistent with protein + DNA (67.5 kDa calculated); Buffer, salt, pH and temperature not given in the material; NMR at 800 MHz; SANS in 0, 65 or 100% D2O. The conditions noted are these: protein: recombinant; tags: His-tag; chain copies: 2; blunt (only one strand printed; complement implied).

B1: OAOB (dsDNA)
DNA 1: GGACGAGTTTTAGCGGCTAAAGGTGTTGACGTGCGAGAAATGTTTAGCTAAACTTCG
DNA 2: CGAAGTTTAGCTAAACATTTCTCGCACGTCAACACCTTTAGCCGCTAAAACTCGTCC
As for B1, the binding result in the data set with KorA, with KorB [1] and with KorB;KorA was “binds” each time.

B2: KorA (repressor from the plasmid RK2) (natural protein, plasmid RK2 (IncP1), UniProt P03052 1-101, looked up)
chain: MKKRLTESQFQEAIQGLEVGQQTIEIARGVLVDGKPQATFATSLGLTRGAVSQAVHRVWAAFEDKNLPEGYARVTAVLPEHQAYIVRKWEADAKKKQETKR
notes: KorA of plasmid RK2; used as a dimer; the domain scheme runs from residue 1 to 101; also called ^1H-KorA; ^2D-KorA; source: E. coli BL21(λDE3), without a tag, purified as before [14]
B2: in data set [2], the “stoichiometry N” value was 2 KorA dimers per KorB dimer.

B3: OB (dsDNA)
DNA 1: CGAGAATTTTAGCGGCTAAAAAGGGC
DNA 2: GCCCTTTTTAGCCGCTAAAATTCTCG
B3: the binding result with KorB [3] and in the data set with (NΔ150)KorB was “binds” in each case.
